Source: patent publication US7638490B2, “Methods of affecting feeding and weight in mammals by administration of relaxin-3” (priority 2004, dated 2009)

Assays:
SALPR [1] = molecular target: T1, SALPR (Homo sapiens, UniProt Q9NSD7); test: Suppression of forskolin-increased transcription activity (CRE-PLAP reporter) in SALPR-SE302 cells; format: cell-based; details: forskolin 1 μmol/L, 1 day incubation, alkaline phosphatase reporter
T1 construct: expressed in transfected cells; host or cells: SE302 cells (HEK293 clone carrying a CRE-VIP promoter PLAP reporter), transduced with retrovirus vector pBabeCL(SALPR)IH and selected with hygromycin
T1 sequence (Q9NSD7 1-469): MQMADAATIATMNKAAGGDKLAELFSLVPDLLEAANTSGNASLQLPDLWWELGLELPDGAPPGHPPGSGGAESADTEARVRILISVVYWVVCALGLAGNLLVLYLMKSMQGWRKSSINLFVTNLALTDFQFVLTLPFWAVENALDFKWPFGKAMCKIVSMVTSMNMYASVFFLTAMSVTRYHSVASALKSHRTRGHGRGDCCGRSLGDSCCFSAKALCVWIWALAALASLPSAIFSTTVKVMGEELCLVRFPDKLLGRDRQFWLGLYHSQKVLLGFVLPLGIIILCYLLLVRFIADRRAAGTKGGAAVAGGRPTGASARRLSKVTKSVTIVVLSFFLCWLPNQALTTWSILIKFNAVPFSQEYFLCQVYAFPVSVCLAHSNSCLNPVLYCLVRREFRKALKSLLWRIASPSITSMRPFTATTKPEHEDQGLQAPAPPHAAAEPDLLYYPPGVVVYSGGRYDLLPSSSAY
Protocol: On the following day, relaxin-3 (Phoenix Pharmaceuticals) or insulin (Invitrogen) diluted with an assay medium (DMEM supplemented with 0.1% bovine serum albumin) in specified concentrations was added, after which forskolin (Calbiochem) was added to make a final concentration of 1 μmol/L. After 1 day incubation, 15 μl each of the cell supernatant was recovered and then transferred to a 96-well plate for chemiluminescence measurement (Sumitomo Bakelite), 60 μl of buffer solution for assay (280 mmol/L Na2CO3—NaHCO3, 8 mmol/L MgSO4, pH 10) and 70 μl of Lumiphos530 (Lumigen) were added and the reaction was carried out at room temperature for 1 hour, after which chemiluminescence for each well was measured by a fusion plate reader (Perkin Elmer) to assess the transcription activity.

[2] = Blood leptin concentration after single intracerebroventricular administration; format: in vivo, rat; details: rats, single icv administration, about 3 hours after administration, vs vehicle, t-test p<0.05
Protocol: The above-mentioned rats were anesthetized with Nembutal after the feeding measurement (about 3 hours after administration) and the blood was taken from the abdominal aorta. The blood taken was centrifuged at 1,750×g for 15 minutes and the resulting supernatant was stored at −80° C. Later, the amount of leptin in the supernatant was quantitatively determined by a rat leptin quantification ELISA kit (Amersham Bioscience).

[3] = Amount of feeding after single intracerebroventricular administration; format: in vivo; details: Wistar male rats, single icv, about 50 pmol/rat, 2 hours after administration, vs vehicle, t-test p<0.01
Protocol: Wistar male rats (7 weeks of age; Japan Charles River) were fed feed for experimental animals (MF; Oriental Yeast) to be adapted. The rats (250 to 300 g) received cannulation into the lateral cerebroventricle under anesthesia. Administration experiments were carried out a week or later. Relaxin-3 (60 μg; Phoenix Pharmaceuticals) was dissolved in DMSO and added with an artificial cerebrospinal fluid to make a final concentration of 200 μmol/L. The deposited precipitate was removed by centrifugation and the resulting supernatant was used as a relaxin-3 administration solution. The amount of administration (relaxin-3 concentration in the administration solution) was about 50 pmol/rat when calculated using the standard curve with relaxin-3 in the experimental system shown in Example 7. Rats with guide cannula implantation were divided into 2 groups (6 animals per group) and administered with the relaxin-3 administration solution or a vehicle solution (a solution having the same composition as (2) above without relaxin-3) at a rate of 5 μl/2 minutes using an infusion pump. Immediately after the intracerebroventricular administration of the administration solution, rats were put in a cage where pre-weighed feed was placed and fed ad libitum. The amount of feeding was calculated by measuring the decrease in feed 2 hours later.

[4] = Epididymal fat weight, blood leptin and blood insulin after chronic intracerebroventricular administration; format: in vivo, rat; details: rats, chronic icv administration, day 14, vs vehicle
Protocol: After measuring body weight and the amount of feed on the last day of the experiment (day 14), the rats were anesthetized with Nembutal, epididymal fat was taken and the total fat weight was measured (FIG. 9). Further, the blood was taken from the abdominal aorta. The blood was centrifuged at 1,750×g for 15 minutes and the resulting supernatant was stored at −80° C. Later, the amount of leptin in the supernatant was quantitatively determined by a rat leptin measuring kit (L) (IBL) (FIG. 10A). Further, the amount of insulin in the supernatant was quantitatively determined by an ultra sensitive rat insulin measuring kit (Morinaga Institute of Biological Science) (FIG. 10B).

SALPR [5] = molecular target: T1, SALPR; test: Screening for relaxin-3 antagonistic substance using SALPR-SE302 cells (CRE-PLAP reporter); format: cell-based; details: 3 μmol/L forskolin, relaxin-3 at 3 nmol/L
[6] = Spontaneous locomotor activity under chronic intracerebroventricular administration; format: in vivo, rat; details: rats, chronic icv; light phase days 2 and 7, dark phase days 3 and 8
Protocol: Spontaneous locomotor activity was measured using a Versamax system (Accuscan) in the light phase and dark phase on days when significant difference in body weight increasing activity in the rats receiving relaxin-3 administration was recognized.

[7] = Body weight gain and amount of feeding under chronic intracerebroventricular administration; format: in vivo, rat; details: Wistar male rats, chronic icv by osmotic pump, 100 μmol/L at 6 μl/day
Protocol: A relaxin-3 solution was prepared by dissolving relaxin-3 (Peptide Institute, Inc.) in physiological saline at a concentration of 100 μmol/L. A vehicle solution (physiological saline) or the relaxin-3 solution was poured into an osmotic pump (Alzet osmotic pump model 1002 (DURECT); delivering 6 μl/day), a tube and a cannula for administration, after which they were connected together. Wistar male rats (6 weeks of age; Japan Charles River) were fed feed for experimental animals (MF; Oriental Yeast) and adapted to individual cages for 4 days. Under anesthesia, a guide cannula was inserted into the lateral cerebroventricle of these rats (250-270 g) and an osmotic pump was implanted under the skin. The rats had free access to feed and their body weight and feeding were measured every morning. Further, the decrease in the amount of feed per day is shown as the amount of feeding (FIG. 8).

[8] = Body weight gain under chronic intracerebroventricular administration (locomotor study); format: in vivo, rat; details: Wistar male rats (5 weeks of age), chronic icv by osmotic pump, from day 1 after administration
Protocol: A relaxin-3 solution was prepared by dissolving relaxin-3 (Peptide Institute, Inc.) in physiological saline at a concentration of 100 μmol/L. A vehicle solution (physiological saline) or the relaxin-3 solution was poured into an osmotic pump (Alzet osmotic pump model 1002 (DURECT), delivering at 6 μ/day), a tube and a cannula for administration, after which they were connected together. Wistar male rats (5 weeks of age; Japan Charles River) were fed feed for experimental animals (MF; Oriental Yeast) and adapted to individual cages for 5 days. Under anesthesia, a guide cannula was inserted into the lateral cerebroventricle of these rats (170-200 g) and an osmotic pump was implanted under the skin. The operation date was set to be day 0. The rats had free access to feed and water and the body weight was measured every morning, except on days for locomotor activity measurement (FIG. 11).

| Molecule | effect on increase in transcription activity by forskolin (SALPR [1]) | blood leptin concentration [2] | amount of feeding [3] | amount of epididymal fat [4] | insulin concentration in blood [4] | leptin concentration in blood [4] | effect on increase in transcription activity by forskolin (SALPR [5]) | spontaneous locomotor activity (total for 90 minutes) [6] | amount of feeding ([7]; from day 1) | body weight increase ([7]; from day 1 after operation) | body weight increase [8] |
| --- | --- | --- | --- | --- | --- | --- | --- | --- | --- | --- | --- |
| insulin: related peptide (Invitrogen) used as specificity control in the SALPR reporter test [reference compound] | not affected |  |  |  |  |  |  |  |  |  |  |
| relaxin-3: polypeptide called relaxin-3 (INSL7) comprising the amino acid sequence of SEQ ID NO: 2; natural ligand of SALPR (protein, listed as Homo sapiens) MARYMLLLLLAVWVLTGELWPGAEARAAPYGVRLCGREFIRAVIFTCGGSRWRRSDILAHEAMGDTFPDADADEDSLAGELDEAMGSSEWLALTKSPQAFYRGRPSWQGTPGVLRGSRDVLAGLSSSCCKWGCSKSEISSLC | suppressed via SALPR activation the increase in transcription activity by forskolin | significantly increased | significantly increased | significantly increased | significantly increased | significantly increased | suppressed the increase in transcription activity by forskolin | No significant change in locomotor activity | significant increase in the amount of feeding | significant increase in body weight | significant increase in body weight |
